# Assay results as given in IntAct's records for PubMed 31515488.
# B1: Multifunctional procollagen lysine hydroxylase and glycosyltransferase LH3 (Homo sapiens), O60568 (parent)
# chain: MTSSGPGPRFLLLLPLLLPPAASASDRPRGRDPVNPEKLLVITVATAETEGYLRFLRSAEFFNYTVRTLGLGEEWRGGDVARTVGGGQKVRWLKKEMEKYADREDMIIMFVDSYDVILAGSPTELLKKFVQSGSRLLFSAESFCWPEWGLAEQYPEVGTGKRFLNSGGFIGFATTIHQIVRQWKYKDDDDDQLFYTRLYLDPGLREKLSLNLDHKSRIFQNLNGALDEVVLKFDRNRVRIRNVAYDTLPIVVHGNGPTKLQLNYLGNYVPNGWTPEGGCGFCNQDRRTLPGGQPPPRVFLAVFVEQPTPFLPRFLQRLLLLDYPPDRVTLFLHNNEVFHEPHIADSWPQLQDHFSAVKLVGPEEALSPGEARDMAMDLCRQDPECEFYFSLDADAVLTNLQTLRILIEENRKVIAPMLSRHGKLWSNFWGALSPDEYYARSEDYVELVQRKRVGVWNVPYISQAYVIRGDTLRMELPQRDVFSGSDTDPDMAFCKSFRDKGIFLHLSNQHEFGRLLATSRYDTEHLHPDLWQIFDNPVDWKEQYIHENYSRALEGEGIVEQPCPDVYWFPLLSEQMCDELVAEMEHYGQWSGGRHEDSRLAGGYENVPTVDIHMKQVGYEDQWLQLLRTYVGPMTESLFPGYHTKARAVMNFVVRYRPDEQPSLRPHHDSSTFTLNVALNHKGLDYEGGGCRFLRYDCVISSPRKGWALLHPGRLTHYHEGLPTTWGTRYIMVSFVDP
# partner: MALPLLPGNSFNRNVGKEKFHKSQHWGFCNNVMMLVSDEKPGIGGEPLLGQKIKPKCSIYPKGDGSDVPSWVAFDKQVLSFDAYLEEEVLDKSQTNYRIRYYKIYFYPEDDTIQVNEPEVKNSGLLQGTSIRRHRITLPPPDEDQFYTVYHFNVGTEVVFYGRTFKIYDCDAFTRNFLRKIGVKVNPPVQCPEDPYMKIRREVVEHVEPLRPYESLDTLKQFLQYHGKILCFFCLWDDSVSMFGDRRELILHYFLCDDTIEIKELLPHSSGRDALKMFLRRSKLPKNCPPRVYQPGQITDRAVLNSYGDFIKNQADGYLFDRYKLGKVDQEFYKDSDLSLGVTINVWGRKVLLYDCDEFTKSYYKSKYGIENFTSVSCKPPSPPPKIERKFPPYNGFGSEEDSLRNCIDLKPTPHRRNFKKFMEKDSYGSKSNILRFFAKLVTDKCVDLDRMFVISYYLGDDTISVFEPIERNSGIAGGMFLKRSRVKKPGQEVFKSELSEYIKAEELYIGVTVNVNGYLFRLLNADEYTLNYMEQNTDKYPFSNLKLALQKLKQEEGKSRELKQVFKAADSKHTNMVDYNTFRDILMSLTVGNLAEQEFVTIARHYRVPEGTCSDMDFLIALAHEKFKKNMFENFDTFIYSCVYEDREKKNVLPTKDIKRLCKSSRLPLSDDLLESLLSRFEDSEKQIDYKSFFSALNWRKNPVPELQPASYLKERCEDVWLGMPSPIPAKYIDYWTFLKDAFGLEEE
# B2: Notch homolog 2 N-terminal-like protein A (Homo sapiens), Q7Z3S9 (parent)
# chain: MCVTYHNGTGYCKCPEGFLGEYCQHRDPCEKNRCQNGGTCVAQAMLGKATCRCASGFTGEDCQYSTSHPCFVSRPCLNGGTCHMLSRDTYECTCQVGFTGKECQWTDACLSHPCANGSTCTTVANQFSCKCLTGFTGQKCETDVNECDIPGHCQHGGTCLNLPGSYQCQCLQGFTGQYCDSLYVPCAPSPCVNGGTCRQTGDFTFECNCLPETVRRGTELWERDREVWNGKEHDEN
# partner: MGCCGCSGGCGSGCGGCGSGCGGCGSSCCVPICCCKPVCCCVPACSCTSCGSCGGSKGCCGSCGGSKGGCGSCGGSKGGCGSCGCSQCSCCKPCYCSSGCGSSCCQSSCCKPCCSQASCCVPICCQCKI
# B3: Phosphoserine phosphatase (Homo sapiens), P78330 (parent)
# chain: MVSHSELRKLFYSADAVCFDVDSTVIREEGIDELAKICGVEDAVSEMTRRAMGGAVPFKAALTERLALIQPSREQVQRLIAEQPPHLTPGIRELVSRLQERNVQVFLISGGFRSIVEHVASKLNIPATNVFANRLKFYFNGEYAGFDETQPTAESGGKGKVIKLLKEKFHFKKIIMIGDGATDMEACPPADAFIGFGGNVIRQQVKDNAKWYITDFVELLGELEE
# partner: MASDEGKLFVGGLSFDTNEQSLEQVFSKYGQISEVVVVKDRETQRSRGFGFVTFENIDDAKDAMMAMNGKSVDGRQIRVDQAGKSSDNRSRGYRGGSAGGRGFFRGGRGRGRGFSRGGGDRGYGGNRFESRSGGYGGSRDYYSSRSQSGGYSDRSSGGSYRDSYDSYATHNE
# B4: Protein dispatched homolog 1 (Homo sapiens), Q96F81 (parent)
# chain: MAMSNGNNDFVVLSNSSIATSAANPSPLTPCDGDHAAQQLTPKEATRTKVSPNGCLQLNGTVKSSFLPLDNQRMPQMLPQCCHPCPYHHPLTSHSSHQECHPEAGPAAPSALASCCMQPHSEYSASLCPNHSPVYQTTCCLQPSPSFCLHHPWPDHFQHQPVQQHIANIRPSRPFKLPKSYAALIADWPVVVLGMCTMFIVVCALVGVLVPELPDFSDPLLGFEPRGTAIGQRLVTWNNMVKNTGYKATLANYPFKYADEQAKSHRDDRWSDDHYEREKREVDWNFHKDSFFCDVPSDRYSRVVFTSSGGETLWNLPAIKSMCNVDNSRIRSHPQFGDLCQRTTAASCCPSWTLGNYIAILNNRSSCQKIVERDVSHTLKLLRTCAKHYQNGTLGPDCWDMAARRKDQLKCTNVPRKCTKYNAVYQILHYLVDKDFMTPKTADYATPALKYSMLFSPTEKGESMMNIYLDNFENWNSSDGVTTITGIEFGIKHSLFQDYLLMDTVYPAIAIVIVLLVMCVYTKSMFITLMTMFAIISSLIVSYFLYRVVFHFEFFPFMNLTALIILVGIGADDAFVLCDVWNYTKFDKPHAETSETVSITLQHAALSMFVTSFTTAAAFYANYVSNITAIRCFGVYAGTAILVNYVLMVTWLPAVVVLHERYLLNIFTCFKKPQQQIYDNKSCWTVACQKCHKVLFAISEASRIFFEKVLPCIVIKFRYLWLFWFLALTVGGAYIVCINPKMKLPSLELSEFQVFRSSHPFERYDAEYKKLFMFERVHHGEELHMPITVIWGVSPEDNGNPLNPKSKGKLTLDSSFNIASPASQAWILHFCQKLRNQTFFYQTDEQDFTSCFIETFKQWMENQDCDEPALYPCCSHWSFPYKQEIFELCIKRAIMELERSTGYHLDSKTPGPRFDINDTIRAVVLEFQSTYLFTLAYEKMHQFYKEVDSWISSELSSAPEGLSNGWFVSNLEFYDLQDSLSDGTLIAMGLSVAVAFSVMLLTTWNIIISLYAIISIAGTIFVTVGSLVLLGWELNVLESVTISVAVGLSVDFAVHYGVAYRLAPDPDREGKVIFSLSRVGSAMAMAALTTFVAGAMMMPSTVLAYTQLGTFMMLIMCISWAFATFFFQCMCRCLGPQGTCGQIPLPKKLQCSAFSHALSTSPSDKGQSKTHTINAYHLDPRGPKSELEHEFYELEPLASHSCTAPEKTTYEETHICSEFFNSQAKNLGMPVHAAYNSELSKSTESDAGSALLQPPLEQHTVCHFFSLNQRCSCPDAYKHLNYGPHSCQQMGDCLCHQCSPTTSSFVQIQNGVAPLKATHQAVEGFVHPITHIHHCPCLQGRVKPAGMQNSLPRNFFLHPVQHIQAQEKIGKTNVHSLQRSIEEHLPKMAEPSSFVCRSTGSLLKTCCDPENKQRELCKNRDVSNLESSGGTENKAGGKVELSLSQTDASVNSEHFNQNEPKVLFNHLMGEAGCRSCPNNSQSCGRIVRVKCNSVDCQMPNMEANVPAVLTHSELSGESLLIKTL
# partner: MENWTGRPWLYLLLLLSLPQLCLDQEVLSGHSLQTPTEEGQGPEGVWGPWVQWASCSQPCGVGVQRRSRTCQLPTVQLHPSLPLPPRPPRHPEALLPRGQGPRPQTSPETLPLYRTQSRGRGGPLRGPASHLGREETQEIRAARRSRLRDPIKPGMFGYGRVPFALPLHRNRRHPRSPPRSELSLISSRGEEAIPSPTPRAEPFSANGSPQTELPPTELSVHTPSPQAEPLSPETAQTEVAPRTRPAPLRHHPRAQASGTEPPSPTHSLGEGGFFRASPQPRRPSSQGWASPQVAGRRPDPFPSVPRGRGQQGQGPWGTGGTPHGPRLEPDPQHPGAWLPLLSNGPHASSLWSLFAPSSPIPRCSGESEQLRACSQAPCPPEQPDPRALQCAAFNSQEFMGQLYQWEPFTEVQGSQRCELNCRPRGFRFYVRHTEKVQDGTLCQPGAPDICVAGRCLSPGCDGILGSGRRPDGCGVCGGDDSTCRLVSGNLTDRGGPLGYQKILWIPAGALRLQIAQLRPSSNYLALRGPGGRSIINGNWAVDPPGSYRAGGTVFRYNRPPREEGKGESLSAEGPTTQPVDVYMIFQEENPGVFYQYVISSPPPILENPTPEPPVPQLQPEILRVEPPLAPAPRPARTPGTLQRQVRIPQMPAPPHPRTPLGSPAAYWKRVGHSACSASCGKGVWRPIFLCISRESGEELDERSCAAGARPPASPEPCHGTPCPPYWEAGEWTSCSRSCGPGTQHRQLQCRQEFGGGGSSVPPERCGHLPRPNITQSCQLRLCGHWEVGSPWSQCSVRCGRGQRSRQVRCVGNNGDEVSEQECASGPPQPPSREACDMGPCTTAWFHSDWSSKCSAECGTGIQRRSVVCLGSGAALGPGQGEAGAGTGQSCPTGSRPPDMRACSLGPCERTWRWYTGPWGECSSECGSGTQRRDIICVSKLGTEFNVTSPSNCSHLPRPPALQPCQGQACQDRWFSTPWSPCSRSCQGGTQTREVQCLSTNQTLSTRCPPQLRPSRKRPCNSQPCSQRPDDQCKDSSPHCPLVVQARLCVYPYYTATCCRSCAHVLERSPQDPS
# Variants of: B1
# Conditions: with efhc2_human EFHC2, Q5JST6
row,Variant,effect of a mutation on the interaction
1,A492V,disrupting interaction strength

# Variants of: B2
# Conditions: with kra56_human KRTAP5-6, Q6L8G9
row,Variant,effect of a mutation on the interaction
1,R74Q,with no effect
2,A115T,with no effect

# Variants of: B3
# Conditions: with cirbp_human CIRBP
row,Variant,effect of a mutation on the interaction
1,T152I,with no effect
2,T149M,with no effect

# Variants of: B4
# Conditions: with atl4_human ADAMTSL4, Q6UY14
row,Variant,effect of a mutation on the interaction
1,E103K,with no effect
